Source: patent US20160185837A1 (AstraZeneca / MedImmune, published 2016)

Tests used:
Assay in all cases: cell-based or functional assay
human GIP receptor = target: T1, human GIP receptor (human, UniProt P48546 22-466)
T1 sequence (looked up): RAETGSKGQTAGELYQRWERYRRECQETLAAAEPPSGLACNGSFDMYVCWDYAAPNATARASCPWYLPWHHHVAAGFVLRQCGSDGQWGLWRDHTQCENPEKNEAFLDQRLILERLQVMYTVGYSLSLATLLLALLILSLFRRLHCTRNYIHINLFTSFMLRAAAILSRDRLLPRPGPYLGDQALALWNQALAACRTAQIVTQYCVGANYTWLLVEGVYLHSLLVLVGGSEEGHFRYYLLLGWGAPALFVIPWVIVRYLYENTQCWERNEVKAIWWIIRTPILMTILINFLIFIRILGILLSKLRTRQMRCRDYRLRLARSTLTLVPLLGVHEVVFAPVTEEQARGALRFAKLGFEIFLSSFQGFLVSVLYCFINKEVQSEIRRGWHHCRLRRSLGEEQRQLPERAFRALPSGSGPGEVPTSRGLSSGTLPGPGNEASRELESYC

rat GLP-1 receptor = target: T2, rat GLP-1 receptor (rat, UniProt P32301 22-463)
T2 sequence (looked up): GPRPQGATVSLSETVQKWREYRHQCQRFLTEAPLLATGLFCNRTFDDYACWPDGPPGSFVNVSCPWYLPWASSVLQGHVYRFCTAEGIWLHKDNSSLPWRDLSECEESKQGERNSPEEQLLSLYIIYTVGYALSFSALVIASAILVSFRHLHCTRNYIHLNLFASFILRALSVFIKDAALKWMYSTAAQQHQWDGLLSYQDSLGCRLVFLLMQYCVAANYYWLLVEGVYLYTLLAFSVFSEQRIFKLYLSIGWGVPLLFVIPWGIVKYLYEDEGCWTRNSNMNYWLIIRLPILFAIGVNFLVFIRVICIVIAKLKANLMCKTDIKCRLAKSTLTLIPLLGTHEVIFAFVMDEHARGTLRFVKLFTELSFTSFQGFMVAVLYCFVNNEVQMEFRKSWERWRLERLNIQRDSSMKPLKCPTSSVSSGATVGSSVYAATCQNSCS

human glucagon receptor = human glucagon receptor (human, UniProt P47871 26-477)
human GLP-1 receptor = human GLP-1 receptor (human, UniProt P43220 24-463)
mouse GLP-1 receptor = target: T3, mouse GLP-1 receptor (mouse, UniProt O35659 22-463)
T3 sequence (looked up): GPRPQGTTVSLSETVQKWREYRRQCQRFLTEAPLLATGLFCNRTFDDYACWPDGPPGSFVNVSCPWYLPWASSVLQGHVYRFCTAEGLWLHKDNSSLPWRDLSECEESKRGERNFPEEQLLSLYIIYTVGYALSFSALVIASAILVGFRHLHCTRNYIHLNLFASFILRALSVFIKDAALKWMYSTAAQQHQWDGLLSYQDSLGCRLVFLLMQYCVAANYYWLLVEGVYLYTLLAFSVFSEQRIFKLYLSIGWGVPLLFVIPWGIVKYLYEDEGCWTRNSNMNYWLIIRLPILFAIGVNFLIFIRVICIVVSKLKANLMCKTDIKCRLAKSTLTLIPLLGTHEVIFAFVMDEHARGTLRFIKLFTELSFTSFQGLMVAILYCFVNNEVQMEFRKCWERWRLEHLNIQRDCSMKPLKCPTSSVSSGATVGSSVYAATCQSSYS

mouse GIP receptor = target: T4, mouse GIP receptor (mouse, UniProt Q0P543 19-460)
T4 sequence (looked up): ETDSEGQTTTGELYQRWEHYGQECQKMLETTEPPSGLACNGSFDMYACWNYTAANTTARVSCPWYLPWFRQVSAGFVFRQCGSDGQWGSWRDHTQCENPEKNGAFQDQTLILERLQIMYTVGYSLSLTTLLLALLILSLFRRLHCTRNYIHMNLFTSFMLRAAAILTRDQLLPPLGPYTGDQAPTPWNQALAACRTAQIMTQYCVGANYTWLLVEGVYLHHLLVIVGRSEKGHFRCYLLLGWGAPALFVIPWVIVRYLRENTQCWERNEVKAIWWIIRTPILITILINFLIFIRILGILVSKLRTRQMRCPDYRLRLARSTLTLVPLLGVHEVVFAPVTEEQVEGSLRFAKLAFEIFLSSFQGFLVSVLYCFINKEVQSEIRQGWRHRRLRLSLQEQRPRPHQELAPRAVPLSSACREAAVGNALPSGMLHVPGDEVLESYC

rat GIP receptor = target: T5, rat GIP receptor (rat, UniProt P43219 19-455)
T5 sequence (looked up): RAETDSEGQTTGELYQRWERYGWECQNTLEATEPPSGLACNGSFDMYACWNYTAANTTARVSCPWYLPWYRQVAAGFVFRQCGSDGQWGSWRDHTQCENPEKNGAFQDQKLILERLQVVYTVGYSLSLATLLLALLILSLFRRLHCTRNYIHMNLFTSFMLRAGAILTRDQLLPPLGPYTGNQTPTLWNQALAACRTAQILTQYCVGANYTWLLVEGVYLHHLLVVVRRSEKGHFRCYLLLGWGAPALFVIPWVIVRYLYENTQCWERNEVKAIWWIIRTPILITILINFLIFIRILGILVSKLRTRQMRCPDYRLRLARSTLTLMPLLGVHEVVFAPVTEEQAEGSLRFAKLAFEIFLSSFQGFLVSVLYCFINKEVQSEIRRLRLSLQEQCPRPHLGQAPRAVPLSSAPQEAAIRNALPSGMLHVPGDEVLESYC

B1: IP403 (Fc fusion)
chain: YSEGTHTSDLRILLEEEAVRLFIEKLLAGGGSGGGGSGGGGSGGGGSGGGGSGGGGSGGGGSGGGGSACPPC
cAMP EC50 (human GIP receptor): 16 nM | cAMP EC50 (rat GLP-1 receptor): 73 nM | cAMP EC50 (human glucagon receptor): 960 nM | cAMP EC50 (human GLP-1 receptor): 960 nM | cAMP EC50 (mouse GLP-1 receptor): > 1740 nM | cAMP EC50 (mouse GIP receptor): 21 nM | cAMP EC50 (rat GIP receptor): 0.02 nM

B2: IP390 (Fc fusion)
chain: YSEGTFTSDYSKLLEEEAVRLFIEWLVKGPGGGGGSGGGGSGGGGSGGGGSGGGGSACPPC
cAMP EC50 (human GIP receptor): 0.0088 nM | cAMP EC50 (rat GLP-1 receptor): 0.024 nM | cAMP EC50 (human glucagon receptor): > 218 nM | cAMP EC50 (human GLP-1 receptor): 0.13 nM | cAMP EC50 (mouse GLP-1 receptor): 2 nM | cAMP EC50 (mouse GIP receptor): 3.6 nM | cAMP EC50 (rat GIP receptor): 0.23 nM

B3: IP370 (Fc fusion)
chain: YSEGTFTSLYSKLKEEEAVRLFIEWLLAGGGGGGSGGGGSGGGGSGGGGSATHTCPPC
cAMP EC50 (human GIP receptor): 0.19 nM | cAMP EC50 (rat GLP-1 receptor): 0.35 nM | cAMP EC50 (human glucagon receptor): > 9490 nM | cAMP EC50 (human GLP-1 receptor): 0.62 nM | cAMP EC50 (mouse GLP-1 receptor): 13 nM | cAMP EC50 (mouse GIP receptor): 0.48 nM | cAMP EC50 (rat GIP receptor): 0.13 nM

B4: IP384 (Fc fusion)
chain: YSEGTFTSDYSKLLEEEAVRLFIEWLLKGGGGGGSGGGGSGGGGSGGGGSATHTCPPC
cAMP EC50 (human GIP receptor): 0.0062 nM | cAMP EC50 (rat GLP-1 receptor): 0.024 nM | cAMP EC50 (human glucagon receptor): 26 nM | cAMP EC50 (human GLP-1 receptor): 0.091 nM | cAMP EC50 (mouse GLP-1 receptor): 0.99 nM | cAMP EC50 (mouse GIP receptor): 4.1 nM | cAMP EC50 (rat GIP receptor): 0.043 nM

B5: IP374 (Fc fusion)
chain: YSEGTFTSLYSKLLEEEAVRLFIEWLLAGGGGGGSGGGGSGGGGSGGGGSATHTCPPC
cAMP EC50 (human GIP receptor): 0.2 nM | cAMP EC50 (rat GLP-1 receptor): 0.89 nM | cAMP EC50 (human glucagon receptor): > 2090 nM | cAMP EC50 (human GLP-1 receptor): 1.4 nM | cAMP EC50 (mouse GLP-1 receptor): 19 nM | cAMP EC50 (mouse GIP receptor): 1.9 nM | cAMP EC50 (rat GIP receptor): 0.41 nM

B6: IP400 (Fc fusion)
chain: YSEGTHTSDLSKLLEEEAVRLFIEWLLAGGGGGGSGGGGSGGGGSGGGGSATHTCPPC
cAMP EC50 (human GIP receptor): 0.002 nM | cAMP EC50 (rat GLP-1 receptor): 0.19 nM | cAMP EC50 (human glucagon receptor): 1300 nM | cAMP EC50 (human GLP-1 receptor): 0.29 nM | cAMP EC50 (mouse GLP-1 receptor): 31 nM | cAMP EC50 (mouse GIP receptor): 380 nM | cAMP EC50 (rat GIP receptor): 0.087 nM

B7: IP382 (Fc fusion)
chain: YSEGTFTSLYSKLLEEEAVRLFIEYLLAGGGGGGSGGGGSGGGGSGGGGSATHTCPPC
cAMP EC50 (human GIP receptor): 0.19 nM | cAMP EC50 (rat GLP-1 receptor): 0.68 nM | cAMP EC50 (human glucagon receptor): 120 nM | cAMP EC50 (human GLP-1 receptor): 1.5 nM | cAMP EC50 (mouse GLP-1 receptor): 16 nM | cAMP EC50 (mouse GIP receptor): 6.5 nM | cAMP EC50 (rat GIP receptor): 0.92 nM

B8: IP379 (Fc fusion)
chain: YSEGTHTSDFSKLLEEEAVRLFIEWLLAGGGGGGSGGGGSGGGGSGGGGSATHTCPPC
cAMP EC50 (human GIP receptor): 0.0038 nM | cAMP EC50 (rat GLP-1 receptor): 1.5 nM | cAMP EC50 (human glucagon receptor): > 13200 nM | cAMP EC50 (human GLP-1 receptor): 0.84 nM | cAMP EC50 (mouse GLP-1 receptor): 44 nM | cAMP EC50 (mouse GIP receptor): 150 nM | cAMP EC50 (rat GIP receptor): 0.41 nM

B9: IP371 (Fc fusion)
chain: YSEGMHTSDLSKLLEEEAVRLFIEWLLAGGGGGGGSGGGGSGGGGSGGGGSACPPC
cAMP EC50 (human GIP receptor): 0.011 nM | cAMP EC50 (rat GLP-1 receptor): 1.1 nM | cAMP EC50 (human glucagon receptor): > 6560 nM | cAMP EC50 (human GLP-1 receptor): 0.48 nM | cAMP EC50 (mouse GLP-1 receptor): 8.5 nM | cAMP EC50 (mouse GIP receptor): 280 nM | cAMP EC50 (rat GIP receptor): 0.21 nM

B10: IP372 (Fc fusion)
chain: YSEGTFTSDYSIYLDEEAVRLFIEWLLAGGGGGGGSGGGGSGGGGSGGGGSACPPC
cAMP EC50 (human GIP receptor): 0.05 nM | cAMP EC50 (rat GLP-1 receptor): 2.9 nM | cAMP EC50 (human glucagon receptor): > 3880 nM | cAMP EC50 (human GLP-1 receptor): 0.71 nM | cAMP EC50 (mouse GLP-1 receptor): 33 nM | cAMP EC50 (mouse GIP receptor): 450 nM | cAMP EC50 (rat GIP receptor): 27 nM

B11: IP298 (Fc fusion)
chain: YSEGTFTSDVSSYLERQAIDEFIAWLLKGGAAAGGSGSTASSGSGSATGGGGAATHTCPPC
cAMP EC50 (human GIP receptor): 0.14 nM | cAMP EC50 (rat GLP-1 receptor): 0.015 nM | cAMP EC50 (human glucagon receptor): > 13100 nM | cAMP EC50 (human GLP-1 receptor): 0.18 nM | cAMP EC50 (mouse GLP-1 receptor): 0.36 nM | cAMP EC50 (mouse GIP receptor): 80 nM | cAMP EC50 (rat GIP receptor): 7.5 nM

B12: IP317 (Fc fusion)
chain: YSEGTFTSDVSSYLEKQAIDEFIAWLLKGGAAAGGSGSTASSGSGSATGGGGAATHTCPPC
cAMP EC50 (human GIP receptor): 0.11 nM | cAMP EC50 (rat GLP-1 receptor): 0.012 nM | cAMP EC50 (human glucagon receptor): > 5550 nM | cAMP EC50 (human GLP-1 receptor): 0.13 nM | cAMP EC50 (mouse GLP-1 receptor): 0.33 nM | cAMP EC50 (mouse GIP receptor): 86 nM | cAMP EC50 (rat GIP receptor): 5.3 nM

B13: IP304 (Fc fusion)
chain: YSEGTFTSDVSSYLERQAIEEFIAWLLKGGAAAGGSGSTASSGSGSATGGGGAATHTCPPC
cAMP EC50 (human GIP receptor): 0.1 nM | cAMP EC50 (rat GLP-1 receptor): 0.024 nM | cAMP EC50 (human glucagon receptor): 2600 nM | cAMP EC50 (human GLP-1 receptor): 0.16 nM | cAMP EC50 (mouse GLP-1 receptor): 0.69 nM | cAMP EC50 (mouse GIP receptor): 16 nM | cAMP EC50 (rat GIP receptor): 4.6 nM
